From patent US20250355001A1, “METHOD FOR DETECTING A TAU PROTEIN FRAGMENT IN A SAMPLE” (GTINVENT LIMITED, priority 2022, published 2025)
Residue numbers refer to the chain shown, from its start.

Legend:
[1] = tested on: hT40, dGA, dGAE and truncated tau fragments; test: Binding ELISA / epitope mapping of anti-tau scAbs with truncated tau proteins and 13mer peptides; design: species or system human; settings: for Tau proteins/fragments with positive scAb reactivity: binding ELISA; for Shortest region bound on hT40: incl. 13mer peptides; for Epitope: residue numbers of SEQ ID NO: 1 (hT40), CDR Tables 1-11; for Binding regions on hT40: Table 33, core binding scAbs tested in epitope occlusion assays
Method: A series of binding ELISA was performed using various truncated versions of the tau protein and 13mer peptide libraries spanning the entire hT40 molecule for mapping the epitopes of anti-tau scAbs (Full list of protein antigens used is given in Table 14). In general, ELISA plates were coated with 1 μg/ml hT40 or dGA or dGAE or other truncated versions of the protein and in the case of biotinylated peptides, plates were coated with 5 μg/ml Streptavidin followed by 1 μg/ml biotinylated peptide. The plates were blocked with 2% MPBS and scAb samples added at desired starting concentrations and double diluted across the plate. Binding was detected using anti-Human C Kappa HRP conjugated secondary antibody and the resulting immunoreaction was developed and absorbance values measured as described above.
Selected E specific scAbs and their specific binding to dGAE is shown below (FIG. 8A-E).
Similarly, dGA binding ‘NS’, ‘S’ and ‘M’ group scAbs were subjected to further antigen binding ELISA using shorter tau proteins and biotinylated 13mer peptides as shown below (FIG. 10A-F) and (FIG. 11A-R).

[2] = biological target: T1, hT40 (T441, SEQ ID NO: 1) (Homo sapiens, UniProt P10636); test: Biacore X100 SPR kinetics of scAbs for hT40; format: binding; settings: Table 25; '3a' and '3b' scAbs, hT40
T1 construct: Full length tau (hT40)
T1 sequence (P10636 1-441 isoform P10636-8): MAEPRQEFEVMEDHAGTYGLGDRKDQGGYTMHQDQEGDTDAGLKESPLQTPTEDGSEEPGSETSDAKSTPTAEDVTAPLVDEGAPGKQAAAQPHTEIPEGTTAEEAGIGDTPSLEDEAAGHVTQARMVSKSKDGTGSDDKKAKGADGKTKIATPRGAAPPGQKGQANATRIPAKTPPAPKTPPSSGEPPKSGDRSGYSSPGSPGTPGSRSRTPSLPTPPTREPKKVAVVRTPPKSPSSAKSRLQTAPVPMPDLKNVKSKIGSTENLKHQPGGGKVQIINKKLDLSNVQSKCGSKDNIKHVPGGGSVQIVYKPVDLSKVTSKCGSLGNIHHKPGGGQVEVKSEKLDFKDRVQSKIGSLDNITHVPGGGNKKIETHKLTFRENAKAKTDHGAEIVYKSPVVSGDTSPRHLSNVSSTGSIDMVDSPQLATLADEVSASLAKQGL
Method: Surface plasmon resonance (SPR) is widely regarded as the gold standard for real time measurement of protein-protein interactions such as antibody binding. All SPR experiments were carried out using a Biacore X100 machine and HBS EP+ running buffer (GE Healthcare). A ‘capture’ method was followed for affinity measurements, where an anti-human constant kappa chain (HuCk) antibody was conjugated to the surface of a CM5 sensor chip using an amine coupling kit and scAb molecules were immobilised via their HuCk domain. Amine coupling is a very common approach for immobilising the ligand to the chip surface. […] The capture antibody was diluted 1/100 in 10 mM Sodium acetate buffer pH 5.0 and passed over the activated chip surface for a period of at least 420 s. Final ligand immobilisation levels over 12,000 RU were deemed to be satisfactory.
Following immobilisation, the level of each scAb to be captured was identified using the standard SPR equation with a theoretical RMax of 100 RU. Analyte MW refers to the molecular weight of hT40 or dGA/dGAE molecules, while ligand MW refers to the molecular weight of the scAbs tested. RL is the desired capture level and S refers to the stoichiometric ratio:
The scAb to be tested was added only to flow cell 2 so that flow cell 1 could act as a control to subtract any interaction with the analyte and the chip surface. Both single and multi-cycle runs were utilised using wizards developed in the Biacore X100 control software which are both accepted methods of kinetic analysis (Karlsson, R., et al. Analyzing a kinetic titration series using affinity biosensors (2006) Analytical Biochemistry 349:136-47). The multi-cycle protocol was as follows-Three start-up cycles composed of an initial capture, to the desired level, of the scAb to be tested was performed followed by a 30 s injection of glycine buffer pH 2.0 after each cycle to regenerate the chip surface. […] Following three start-up cycles increasing concentrations (0.15625 nM-100 nM) of the target to be tested were added to the chip surface after the desired scAb capture. The target was added for a 120 s association period and 420 s dissociation period followed by another regeneration, 30 s injection of glycine buffer pH 2.0 in between each cycle.
The single cycle kinetics protocol was similar and utilised the same level of scAb capture. Three start-up cycles were used followed by 5 increasing concentrations of the analyte (6.25 nM-100 nM) for an association period of 120 s followed by a dissociation period of 420 s for each concentration. In single cycle kinetics the regeneration step was performed only after the final analyte concentration was added. Binding responses were analysed in Biacore X100 evaluation software and data fitted to a 1:1 binding model to obtain kinetic and affinity characterisation.

B1: CA7: anti-tau clone, Table 10; VH SEQ ID NO: 503, VL 504 (antibody, V domains shown)
VH: RVRLQGSGPSLVKPSQTLSLTCTVSGFSFDSYYVGWVRQAPGKALEWLGNIYSTGRAFYNPALKSRLSITRDTSKSQVSLSVSSVTIEDTALYYCVRGSYYHGGGNGMVDFFDYWSPGLLVTVSS
VL: QVVRTQPSSVSGSLGQRVSITCSGSSSNVGYGNYVGWFQQVPGSAPKLLIYAATSRASGVPDRFSGSRSGNTATLTIDSLQAEDEADYYCSSYQRGNTGVFGSGTRLTVLG
modifications: CA7 VH Domain; CA7 VL Domain
Tau proteins/fragments with positive scAb reactivity ([1]; Table 17, 'C' group scAbs): hT40, 1-319
Shortest region bound on hT40 ([1]; Table 17, 'C' group scAbs): 1-319
Epitope [1]: 1-319

B2: C-E3 (protein)
CDR 1: SNAVG
CDR 2: GCSSDGKCYYNSALKS
CDR 3: GYYPVYGYDYLGTIDY
CDR 4: SGSSSNVGRNDVA
CDR 5: GTTSRPS
CDR 6: ASGDSSAINDI
modifications: VHCDR1 ME12, NS3D9; VHCDR1 S1D2, S1H6, S2C3; VHCDR1 MC5, MD12; VHCDR1 3aA6, VHCDR1 CE3; VHCDR2 NS3D9, CE3; VHCDR3 NS3D9, CE3; VLCDR1 NS3D9, CE3; VLCDR2 NS3D9, CE3; VLCDR3 NS3D9, CE3
Binding regions on hT40 [1]: 297-356

B3: E2A6: dGAE (391E) specific clone, Table 9; SEQ ID NO: 252 (protein)
scFv: QVQLQESGPSLVKPSQTLSLTCTVSGFSLTDWGVAWVRQAPGKALEWLGTMRSGGTTDDNPALKSRLSITRDTSKSQVSLSLSSVTTEDMAMYYCARGYLSGVHYAWGRGLLVTVSSEGKSSGASGESKVDDRVVRTQPSSVSKSLGQSVSITCSGSSSNVGAGNYVGWFQQVPGSAPKLLIYGATNRASGVPARFSGSKSGVTATLTITSLQAEDEADYYCASIDTSRSHIFGSGTRLTVLG
modifications: E2A6 amino acid sequence
Tau proteins/fragments with positive scAb reactivity ([1]; Table 15, residue numbers of hT40): 297-391 (dGAE)

B4: S-1D12 (protein)
CDR 1: NNAVG
CDR 2: GCSSDGTCYYNSALKS
CDR 3: GHYSIYGYDYLGTIDY
CDR 4: SGSSSNVGGGNSVG
CDR 5: DTNSRPS
CDR 6: VTGDSTTHDDL
modifications: VHCDR1 S1D12, S2C1; VHCDR2 S1D12, S2C1; VHCDR3 S1D12; VLCDR1 S1D12, ME12; VLCDR2 S1D12; VLCDR3 S1D12
Binding regions on hT40 [1]: 337-355

B5: CB2: anti-tau clone, Tables 2 and 10; SEQ ID NO: 369 (protein)
scFv: QVQLQESGPSLVKPSQTLSLTCTVSGFSLSTNSVGWVRQAPGKAPEWVAGIDTDGEEGFNPVLKSRLSITRDTSKSQVSLSLSNVTSEDTAVYYCGRSYRTDGLAYGYVQAIDYWGPGLLVTISSEGKSSGASGESKVDDQSVLTQPSSVSGSPGQTVSITCSGSYIGSSGVGWFQQLPGSGLRTIIVASDGRPSGVPDRFSMSKSGNTATLTISSLQAEDEADYFCGSSDRTQYTGLFGSGTRLTVLG
modifications: CB2 amino acid sequence
Tau proteins/fragments with positive scAb reactivity ([1]; Table 17, 'C' group scAbs): hT40, 348-441
Shortest region bound on hT40 ([1]; Table 17, 'C' group scAbs): 359-391

B6: NS1G7: anti-tau clone, Table 10; SEQ ID NO: 374 (protein)
scFv: QVQLQESGPSLVKPSQTLSLTCTVSGFSLTSYGVGWVRQAPGKTLEWISSISSGGTTFYNPALKSRLSITRDTSESQVSLSLSSVTTEDTAVYYCTRDVHIYYNDYGAAYGDRDYWGPGLLVTVSSEGKSSGASGESKVDDQAVVTQPPSVSGSPGQRVSITCSGSSSNIGGGNYVSWYQQLPGSGLRTLIYGTTSRASGVPDRFSGSGSGNTATLTISSLQAEDEADYYCASYDTNSGSVFGSGTRLTVLG
modifications: NS1G7 amino acid sequence
Tau proteins/fragments with positive scAb reactivity ([1]; Table 16, NS, S and M clones): hT40, 297-390 (dGA), 297-391 (dGAE), 275-305, 337-368

B7: CA12: anti-tau clone, Tables 2 and 10; SEQ ID NO: 372 (protein)
chain: QVQLQGSGPSLVKPSQTLSLTCTVSGFSFDSYYVGWVRQAPGKALEWLGNIYSTGRAFYNPALKSRLSITRDTSKSQVSLSVSSVTIEDTALYYCVRGSYYHGGGNGMVDFFDYWSPGLLVTVSSEGKSSGASGESKVDDQVVRTQPSSVSGSLGQRVSITCSGSSSNVGYGNYVGWFQQVPGSAPKLLIYAATSRASGVPDRFSGSRSGNTATLTIDSLQAEDEADYYCSSYQRGNTGVFGSGTRLTVLG
modifications: CA12 amino acid sequence
Tau proteins/fragments with positive scAb reactivity ([1]; Table 17, 'C' group scAbs): hT40, 297-390 (dGA)
Shortest region bound on hT40 ([1]; Table 17, 'C' group scAbs): 367-379

B8: 3aD3: N-terminal anti-tau clone, Table 6; SEQ ID NO: 422 (protein)
chain: QVQLQESGPSLVKPSQTLSLTCTVSGFSLTSNGVGWVRRAPGKVPEWVGDISSGGKVYGHPALKSRLSITRDTSKSQVSLSVSSVTSEDTAVYYCVRCRDGGVSYGYDSDYWGPGLLVTVSSEGKSSGASGESKVDDQAVVTQPSSVSKSLGQSVSITCSGSSSNVGYGDYVGWFQQVPGSAPKLLIYGVTERASGVPDRFSGSRSGNTATLTISSIQAEDEADYYCASYDDSSGGIFGSGTRLTVLG
modifications: 3aD3 amino acid sequence
Short epitope on hT40 ([1]; Table 18, '3a' & '3b' series scAbs): 1-49
Epitope [1]: 1-49
ka [2]: 544400 M⁻¹ s⁻¹
kd [2]: 0.01038 s⁻¹

B9: C-B3 (protein)
scFv: QVQLQESGPSLVKPSQTLSLTCTVSGFSLSSVAVNWVRQAPGKVPEWLGGIISNGGTGYNPALKSRLSITRDTSKSQVSLALTHVTTEDTAVYYCGRGVEWEGSMDYLGPGLLVTVSSEGKSSGSGSETKVDDQSVLTQPSSVSGFLGQRVTITCSGSSSNVGAGSYVGWYQQVPGSGLRILIYGATKRASGLPDRFSGSRSGNTATLTISSLQAEDEADYYCVSYQTDFTLVFGSGTRLTVLG
modifications: left off: small tags and cut ends
Binding regions on hT40 [1]: 360-390

B10: S1G10: anti-tau clone, Table 2; SEQ ID NO: 415 (protein)
scFv: QVQLQESGPSLVKPSQTLSLTCTVSGFSLTSNSVGWVRQAPGKAPEWVAGIDTDGEEGYNPALNSRLSITRDTSKSQVSLSLSSVTSEDTAVYYCGRSYRADGLAYGYVQAIDYWGPGLLVTVSSEGKSSGASGESKVDDQAVLTQPSSMSGSLGQRVSITCSGSFIGISSVGWFQQLPGSGLRTIIVASDGRPSGVPDRFSMSKSGNTATLTISSLQAEDEADYFCGSSDRTQYTGVFGSGTRLTVLG
modifications: S1G10 amino acid sequence
Tau proteins/fragments with positive scAb reactivity ([1]; Table 16, NS, S and M clones): hT40, 297-390 (dGA), 297-391 (dGAE), 369-390, 369-391
Shortest region bound on hT40 ([1]; Table 16, NS, S and M clones): 367-379
Detection scAb (Epitope) ([1]; Table 28 (LoD table), residues of hT40): S1G10 (367-379)

B11: C-A9 (protein)
scFv: B10 scFv with A101S, S148A, M150V
modifications: left off: small tags and cut ends
Binding regions on hT40 [1]: 367-379
